Experiment [1] deals with AIF H454A (human) (UniProt O95831). The experiment is described as follows: SAXS.
For experiment [2], the target named is AIF S480A (human) (UniProt O95831). The experiment is described as follows: SAXS.

For orientation: stoichiometry N means the number of molecules, sites or subunits per partner or assembly.

“AIF H454A (from UniProt O95831 78-613) (domain or fragment)” came in with a stoichiometry N in experiment [1] of 2.
As for “AIF S480A (from UniProt O95831 78-613) (domain or fragment)”, the stoichiometry N in experiment [2] amounted to 2.

Values taken from paper PMC5143173.
